The values below come from the supplement of paper PMC9732359.

± gives the uncertainty stated by the source.

A short description of the data set: protein stability index of a GFP-peptide fusion (yeast GPS) (PSI 1-4); higher = more stable; sorted into four equal gates, so the index is relative within each strain. Summed up:
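For each peptide, the protein stability index sums the read frequency in every gate after multiplying it by the gate number. Read frequencies came from plasmids that were PCR-amplified from each gate and Illumina-sequenced, with reads assigned to strains by barcodes. The gates were four equal bins of GFP/Cherry fluorescence ratio applied to mid-log yeast in leucine-free medium carrying a pooled library of tiled 17-residue yeast protein peptides fused downstream of GFP on a Cherry-expressing plasmid.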

In the case of VDKIFEKVNNNATLTPN [SWI1], the protein stability index came out at 3.09 ± 0.079 (doa10∆), 3.08 ± 0.073 (pdr5∆), 3.22 ± 0.069 (san1∆) and 3.15 ± 0.051 (ubr1∆).

As for VDLTSSNFADSADYEIL [YDL116W/NUP84], the protein stability index reads like this: (doa10∆) 2.84 ± 0.087; (pdr5∆) 3.12 ± 0.098; (san1∆) 3.31 ± 0.093; (ubr1∆) 3.29 ± 0.09.

As for VDQGQIYRDRSTFTKHL [ITC1], the protein stability index was 3.2 ± 0.06 (doa10∆), 3.33 ± 0.067 (pdr5∆), 3.15 ± 0.042 (san1∆) and 3.15 ± 0.037 (ubr1∆).

Take VDSRTKIRMLTQAAEFL [IRR1]: the protein stability index worked out at 2.47 ± 0.11 (doa10∆), 2.96 ± 0.084 (pdr5∆), 1.78 ± 0.11 (san1∆) and 2.81 ± 0.079 (ubr1∆).

Turning to VDVQAPTDDKTLKPTFS [YOR098C/NUP1], the protein stability index (doa10∆) is 3.05 ± 0.15, the protein stability index (pdr5∆) amounted to 3.23 ± 0.18, the protein stability index (san1∆) was determined as 3.16 ± 0.19 and the protein stability index (ubr1∆) stood at 3.27 ± 0.076.

Turning to VEDALDKDSTKEVASLP [FAS2], the protein stability index reads like this: (doa10∆) 3.15 ± 0.13; (san1∆) 3.12 ± 0.12.

On to VEDTLHVNKRKRVSGTS [YOR098C/NUP1], for which the protein stability index came out at 1.42 ± 0.078 (doa10∆), 1.92 ± 0.13 (pdr5∆), 1.73 ± 0.15 (san1∆) and 1.52 ± 0.077 (ubr1∆).

The sequence VEFNRKVVIPNLLCYYN [RPN3] gave a protein stability index (pdr5∆) of 1.67 ± 0.22.

For the sequence VEIEKRILKLGTQLATL [YGR119C/NUP57], the protein stability index reads like this: (doa10∆) 2.11 ± 0.23; (pdr5∆) 1.22 ± 0.14; (san1∆) 1.94 ± 0.18; (ubr1∆) 1.4 ± 0.066.

As for VEILFEAGASAELDDCR [RPO21], the protein stability index (doa10∆) stood at 2.94 ± 0.14, the protein stability index (pdr5∆) stood at 3.44 ± 0.15, the protein stability index (san1∆) stood at 2.93 ± 0.074 and the protein stability index (ubr1∆) is 3.49 ± 0.16.

VEKRIGKIVSQRGKWNL [RGR1] yielded a protein stability index (doa10∆) of 2.88 ± 0.065, a protein stability index (pdr5∆) of 2.96 ± 0.049, a protein stability index (san1∆) of 3.16 ± 0.06 and a protein stability index (ubr1∆) of 2.71 ± 0.036.

In the case of VENIERVVMMKYDRKVP [RPO21], the protein stability index by setting is: (doa10∆) 2.29 ± 0.17; (pdr5∆) 2.67 ± 0.2; (san1∆) 2.13 ± 0.19; (ubr1∆) 2.36 ± 0.085.

For the sequence VERGRVGACTDEEMTIS [RRP43], the protein stability index (pdr5∆) was 3.08 ± 0.23 and the protein stability index (ubr1∆) is 3.23 ± 0.2.

Turning to VESQFSAGRLYACISSR [RPS8A], the protein stability index worked out at 2.08 ± 0.11 (doa10∆), 2.65 ± 0.097 (pdr5∆), 1.99 ± 0.14 (san1∆) and 2.55 ± 0.14 (ubr1∆).

On to VEWINPSRRERRREQTT [ISW2], for which the protein stability index (ubr1∆) was 3.39 ± 0.15.

On to VEYLDVNEENDSYIALY [RET1], for which the protein stability index is, setting by setting: (doa10∆) 2.97 ± 0.14; (pdr5∆) 3.08 ± 0.19; (san1∆) 3.2 ± 0.08; (ubr1∆) 3.2 ± 0.12.

Turning to VEYVDPTVNRVPNYEVS [RPN7], the protein stability index (doa10∆) was determined as 3.37 ± 0.26, the protein stability index (pdr5∆) came out at 3.2 ± 0.16, the protein stability index (san1∆) is 2.92 ± 0.25 and the protein stability index (ubr1∆) stood at 3.8 ± 0.15.

VFFDDDPLYDITKVPAL [REC8]: the protein stability index came out at 2.47 ± 0.063 (doa10∆), 2.92 ± 0.082 (pdr5∆), 2.7 ± 0.065 (san1∆) and 2.88 ± 0.055 (ubr1∆).

VFQLPTRLPAFERPAVK [RPC53]: the protein stability index (doa10∆) is 3.01 ± 0.093, the protein stability index (pdr5∆) worked out at 2.89 ± 0.072, the protein stability index (san1∆) stood at 2.81 ± 0.1 and the protein stability index (ubr1∆) amounted to 3.01 ± 0.079.

VFVNTGLQNVRKVRTKK [SWP82]: the protein stability index is, setting by setting: (doa10∆) 2.51 ± 0.16; (pdr5∆) 2.35 ± 0.096; (san1∆) 2.78 ± 0.17; (ubr1∆) 3.11 ± 0.15.

With VGCIFAELIGLQPIFKG [SSN3], the protein stability index is 3.02 ± 0.085 (doa10∆), 2.42 ± 0.097 (pdr5∆), 3.06 ± 0.04 (san1∆) and 2.5 ± 0.094 (ubr1∆).

Consider VGEEETSQKMKKMVYVL [SRP54], for which the protein stability index is, setting by setting: (doa10∆) 3.31 ± 0.11; (pdr5∆) 3.38 ± 0.11; (san1∆) 3.31 ± 0.078; (ubr1∆) 3.17 ± 0.077.

Take VGEKLVVVVLEEPSASI [SIR3]: the protein stability index came out at 3.07 ± 0.076 (doa10∆), 2.94 ± 0.087 (pdr5∆), 3.2 ± 0.052 (san1∆) and 3.1 ± 0.13 (ubr1∆).

In the case of VGGKSTVQNEILGDLGK [FAS2], the protein stability index runs as follows: (doa10∆) 3.02 ± 0.075; (pdr5∆) 2.92 ± 0.1; (san1∆) 2.18 ± 0.1; (ubr1∆) 3.25 ± 0.11.

Take VGGQFSKVQFDAKTSYP [REC8]: the protein stability index reads like this: (doa10∆) 3.19 ± 0.095; (pdr5∆) 3.17 ± 0.094; (san1∆) 3 ± 0.077; (ubr1∆) 3.19 ± 0.055.

Turning to VGKLFRVGVVSILEAGD [RPL30], the protein stability index runs as follows: (doa10∆) 1.99 ± 0.097; (pdr5∆) 1.36 ± 0.093; (san1∆) 1.58 ± 0.17; (ubr1∆) 1.67 ± 0.081.
